In the supplement of paper PMC9732359:
± gives the uncertainty stated by the source.

Assay: protein stability index of a GFP-peptide fusion (yeast GPS) (PSI 1-4); higher = more stable; sorted into four equal gates, so the index is relative within each strain
Details: doa10∆
Outline: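 The protein stability index of a peptide was calculated by multiplying its read frequency in each gate by that gate's number and adding the products. The peptides were tiled 17-residue stretches of yeast proteins, fused downstream of GFP on a Cherry-expressing plasmid and carried in yeast as a pooled library. Mid-log cultures in leucine-free medium were sorted into four equal gates by GFP/Cherry ratio, and each gate's plasmids were PCR-amplified and Illumina-sequenced.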

For GLDATKLYVSHIQVNQA [RPL17A], the protein stability index was 2.5 ± 0.096.

Same assay, conditions: pdr5∆

FQIIDTLLPGLQDEVMN [RPS2] and FQIVIEPLAIALSMGKS [ARP7] are within error of each other in protein stability index: 1.72 ± 0.059 for the first, 1.71 ± 0.059 for the second.

First: FQMNCYAKEDAFSYPRM [RPN2]
Second: FQNSYKPALKVSKEGLY [YMR129W/POM152]
The protein stability index of the first is lower: 2.52 ± 0.078 for the first, 3.12 ± 0.11 for the second.

First: FQQIQYENKQLYFPDDY [POP1]
Second: FQSQQRRKDTSMVLFFV [RPB9]
The protein stability index of the first is higher: 2.5 ± 0.083 for the first, 1.57 ± 0.14 for the second.

First: FRAVGEGNAQLVAIFGG [FAS1]
Second: FRETTHSKRELDSGDDQ [BRR2]
The protein stability index of the first is lower: 1.55 ± 0.063 for the first, 3.02 ± 0.12 for the second.

Going from FRSYMDQEKKYGMSITE [RPB2] to FSFGKPFFSSNTSSLQS [YIL149C/MLP2], the protein stability index rises from 2.43 ± 0.063 to 3.07 ± 0.052.

Compared with FSFGQNNNNTNTQPSAS [YGR119C/NUP57], FSFGTSQPNNTPSFSFG [YLR335W/NUP2] is higher in protein stability index: 2.61 ± 0.069 for the first, 2.73 ± 0.047 for the second.

First: FSGKGVHKLRHYLVNLT [GRR1]
Second: FSKILPAALDGLMKSYK [ESC2]
The protein stability index of the first is lower: 1.44 ± 0.034 for the first, 2.28 ± 0.069 for the second.

FSMLQMAFEASAAAAGN [BRR2] and FSNKYLELCKLASNNLE [RRI2] are within error of each other in protein stability index: 2.26 ± 0.25 for the first, 2.1 ± 0.039 for the second.

Going from FSNVNELQEKNVELLNC [YIL149C/MLP2] to FSPVISQSLTSILVIVQ [SWI1], the protein stability index falls from 3.29 ± 0.13 to 1.66 ± 0.05.

Going from FSSKNEWRKSAIANTLL [PRP8] to FTFGQSTSENKISEGSA [YOR098C/NUP1], the protein stability index rises from 2.79 ± 0.045 to 3.35 ± 0.084.

Going from FTGQGSQEQGMGMDLYK [FAS1] to FTLTYDIIETFSSKRKT [YMR129W/POM152], the protein stability index falls from 3.4 ± 0.093 to 2.07 ± 0.064.

Compared with FTNIISRNKALELNLSV [YJL039C/NUP192], FTQLKKNIPKTRYNRDY [SNU114] is lower in protein stability index: 2.78 ± 0.087 for the first, 2.59 ± 0.056 for the second.

Going from FTQQELQKQMGIGSLTD [RPC34] to FTSHTRLRQGAAKLRTL [RPL2A], the protein stability index falls from 2.39 ± 0.11 to 1.68 ± 0.044.

First: FTTNKSKDVSRLLSALG [SRP21]
Second: FVIPILIKMSRSPPRPP [PRP28]
The protein stability index of the first is higher: 2.41 ± 0.28 for the first, 1.93 ± 0.065 for the second.

FVTRKSRKRAKKMTKKA [PRP8] and FVVGVDNVSSQQMHEVR [RPP0] are within error of each other in protein stability index: 2.91 ± 0.12 for the first, 2.74 ± 0.1 for the second.

Going from FVVKLDTVDRLIIKYQK [GAL11] to FWFDKLVTKILPLKKNE [YCG1], the protein stability index rises from 2.3 ± 0.048 to 3 ± 0.14.

First: FWSLHSSTYYNLDYLFE [NUT1]
Second: FYERLDKSTTQLRKEIQ [MED11]
The protein stability index of the first is lower: 2.05 ± 0.037 for the first, 2.82 ± 0.081 for the second.

GAEDPKVLINDQLSTIS [SWI1] and GAEVDEARINELLSSLE [RPP2B] are within error of each other in protein stability index: 3.24 ± 0.25 for the first, 3.5 ± 0.11 for the second.

Going from GAFDQLKQNAIRARIPF [SRP54] to GAKGSTLIVVPFNQGSK [FAS2], the protein stability index falls from 2.89 ± 0.06 to 2.48 ± 0.088.

Going from GAKNIEITVVKPDSDIV [PRE6] to GALHFVQQSEKLRNEVE [YIL149C/MLP2], the protein stability index rises from 2.46 ± 0.041 to 3.16 ± 0.22.

GALQESVEAYLVSLFED [HHT1] and GAMGLLSSAGAKSTVET [RIP1] are within error of each other in protein stability index: 2.62 ± 0.12 for the first, 2.46 ± 0.11 for the second.

Going from GANPRVLSTFTAEFGKI [RPN10] to GAPGANARMPGMPNMPG [SRP54], the protein stability index rises from 2.08 ± 0.1 to 3.2 ± 0.28.

Compared with GAQIVSKQIFTHPKDTF [ARP9], GARVFGALKGASDGGLY [RPL5] is higher in protein stability index: 1.51 ± 0.051 for the first, 3.34 ± 0.17 for the second.

Going from GASGVDDFQNFFDPKPF [SWI1] to GASIIQVIFEIFEISLQ [YML103C/NUP188], the protein stability index falls from 2.68 ± 0.064 to 1.82 ± 0.044.

First: GASNGDDSNGGNGEGLG [BRN1]
Second: GATSKPAFSFGAKPEEK [YJL041W/NSP1]
The protein stability index of the first is lower: 2.83 ± 0.23 for the first, 3.4 ± 0.092 for the second.

First: GATVFVNHLLLFAREIA [DPB4]
Second: GCGNTQPTIRKDGLKLV [RPO21]
The protein stability index of the first is lower: 1.9 ± 0.04 for the first, 2.11 ± 0.056 for the second.

Going from GCIPGNRKRIVTLRKSL [RPL3] to GCLSVLYQSKGRYMEAL [SRP68], the protein stability index rises from 1.5 ± 0.083 to 3.04 ± 0.18.

Going from GCVDIDDALHAKKLPNG [DIS3] to GDHNKLRSTIANLLQIN [YML103C/NUP188], the protein stability index falls from 3.23 ± 0.051 to 2.35 ± 0.069.

GDIKPEFSPRLHNIWSN [YML103C/NUP188] and GDIKVLDSNFNLQREID [RPN14] are within error of each other in protein stability index: 2.98 ± 0.091 for the first, 3.11 ± 0.091 for the second.

First: GDVVLAAAYSHELPRYG [RPL5]
Second: GEGERFTVDKKIAERSL [SKP1]
The protein stability index of the first is lower: 2.95 ± 0.068 for the first, 3.38 ± 0.12 for the second.

First: GEIIDISAFTQFLRLIF [ARP9]
Second: GELEQAQAWINLGEYYA [RPN7]
The protein stability index of the first is lower: 2.23 ± 0.075 for the first, 3.03 ± 0.098 for the second.

Going from GELKRGNESVKPQFENH [MED11] to GESARRFQKCFPPGVIG [RPC40], the protein stability index falls from 3.21 ± 0.089 to 2.34 ± 0.18.

First: GFALNSDIVFIHQNAGR [BRR2]
Second: GFANSLTFILGQLLSVK [YML031W/NDC1]
The protein stability index of the first is higher: 2.09 ± 0.09 for the first, 1.46 ± 0.18 for the second.

GFIETTELLNIYDSEDP [RPN3] and GFTASVSNQENAGTDIV [MED1] are within error of each other in protein stability index: 3.01 ± 0.095 for the first, 2.91 ± 0.13 for the second.

GFVIQDRETALDFIGRR [RPB2] and GGDGRDYKGAKLNVVGW [RRI1] are within error of each other in protein stability index: 2.92 ± 0.13 for the first, 3.15 ± 0.15 for the second.

First: GGLNDPRLGSIDRNLKC [RPO21]
Second: GGQRSLIALSLIMALLQ [SMC2]
The protein stability index of the first is higher: 3.28 ± 0.11 for the first, 1.52 ± 0.063 for the second.

Going from GGSAKPSLKFKPKAVAR [RPC53] to GGSTTNNTTTTSTKPSF [YOR098C/NUP1], the protein stability index rises from 2.7 ± 0.081 to 3.01 ± 0.074.

Going from GGVMANRKIARMRHSKR [YOR098C/NUP1] to GHIVSLELTTGATYRGK [SMD3], the protein stability index falls from 3.6 ± 0.085 to 2.03 ± 0.049.

GHLNGHTPTIASYLTPL [SSN2] and GHPMTKSVYETPKITAA [SEC65] are within error of each other in protein stability index: 2.74 ± 0.043 for the first, 2.63 ± 0.084 for the second.

Going from GHYQAFIRDELDENKWY [UBP6] to GIDINTKIFNSVAEVFQ [YCG1], the protein stability index rises from 1.88 ± 0.047 to 2.93 ± 0.12.

Compared with GIHILLYSGLIIDEIIT [RPC82], GINQILGNEKNQASTSK [CDC53] is higher in protein stability index: 1.41 ± 0.25 for the first, 3.25 ± 0.14 for the second.

First: GIRIISLTYKKISLRDI [RPN3]
Second: GIRYIRLKQVFNRALDQ [NNF1]
The protein stability index of the first is lower: 1.4 ± 0.065 for the first, 1.95 ± 0.027 for the second.

Going from GISINNMMEHWDYLQLT [RPO31] to GISLVMEIVANAKESNY [MED1], the protein stability index falls from 2.81 ± 0.073 to 1.98 ± 0.069.

Compared with GISNGSESKDSDKPSLP [YLR335W/NUP2], GISSAYIKSATLYSVKS [SNU114] is lower in protein stability index: 3.19 ± 0.12 for the first, 1.43 ± 0.11 for the second.

Going from GITGNLDRIPMHSYFIF [COB] to GKDCKLQNLQRIIRKKI [RRI2], the protein stability index rises from 2.19 ± 0.085 to 3.51 ± 0.14.

First: GKDLSPAINYTKLKNAV [QCR2]
Second: GKDRIAINVFPEGYKAK [RPO31]
The protein stability index of the first is lower: 1.64 ± 0.06 for the first, 2.28 ± 0.079 for the second.

First: GKGRFQTPAEKHAFMGT [RPL3]
Second: GKGTGKTAMAELALLNH [BRR2]
The protein stability index of the first is lower: 3.2 ± 0.061 for the first, 3.51 ± 0.15 for the second.

Compared with GKLLLDEHNELMRQALA [RPO21], GKLLRNYTQNIDNLESY [SIR2] is higher in protein stability index: 2.54 ± 0.086 for the first, 3.17 ± 0.27 for the second.

GKLVESEDSMNVQLRDV [SMD3] and GKSTADVKSSDSLKLNS [YJL041W/NSP1] are within error of each other in protein stability index: 3.32 ± 0.1 for the first, 3.35 ± 0.12 for the second.

Sequence GKTTSCTKLAVYYSKRG [SRP54] has a protein stability index of 2.76 ± 0.19.
